# In the supplement of paper PMC10065799, “High-throughput profiling of sequence recognition by tyrosine kinases and SH2 domains using bacterial peptide display” (eLife, 2023):
# System: c-Src
# Test: phosphorylation enrichment, bacterial display (enrichment ratio); higher = better substrate or ligand; peptides without Tyr show the background
# 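Wherever SH2 binding enrichment of the phosphorylated peptide, bacterial display is given: peptide library displayed on the E. coli surface as eCPX fusions, selected cells deep-sequenced, score is each peptide's frequency after selection divided by its frequency in the input.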
# 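Wherever phosphorylation enrichment, bacterial display is given: 11-residue human phosphosite peptides and single-mutation variants displayed on the E. coli surface, counted by deep sequencing, each peptide's frequency after selection divided by its frequency in the unselected input library; frequency after pTyr selection over input frequency; kinase dosed for 20-30% of maximal phosphorylation in three min.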
row,Sequence,phosphorylation enrichment
1,LITTPYIGFLG [KCNQ1_Y267_L266P],1.35
2,RIPFRYPKEFQ [IDS_Y234_H229R],1.1
3,LEIETDRRLLD [KRT12_Y429_Y429D],1.41
4,MLEVSYVDRNS [F10_Y384_P383S],0.466
5,GTHCHYKAPTV [FZD9_Y569],0.485
6,PEVRRYVLPLN [RPE65_Y368],0.804
7,SSFPDYLAAVD [GLB1_Y154_D151Y_YF],0.497
8,YCRHNYGVVES [HLA-DRB1_Y112],0.484
9,LGKLTYPVGFW [NTHL1_Y177_I176T],1.35
10,LIDSSYLTRTA [GREB1L_Y1063],0.489
11,QQLDKYQELLD [LMNA_Y359_E358K],0.453
12,QMWLKYSQSDL [SMC1A_Y714_R711W],0.668
13,SNNFIYTTLGV [FAM83B_Y639_K640T_YF],5.65
14,FDDIACIRKTL [PIK3CA_Y1021_Y1021C],0.378
15,CQASLYPSNHD [LRIG1_Y996_G993A],0.449
16,SVVVPYEPTEV [TP53_Y220_P223T],0.482
17,IRTIDYRYTVS [IDS_Y497_W502S],0.385

row,Sequence,phosphorylation enrichment
1,HNLDFYKETTN [FGFR3_Y648_K650E_YF],1.14
2,GGFNNYGFGSD [HNRNPH3_Y159_N163S_YF],0.426
3,MEIHAYLKLLE [LMNA_Y376_R377L],0.569
4,NRLTDYYEPLL [BBS10_Y536],1.33
5,AGVDRYSLGTS [C5orf42_Y1451_P1446A],0.391
6,TRDTDYQMTKR [ADA_Y308_L304R],0.31
7,FADIAYNFRQG [PAH_Y166_H170Q_YF],0.5
8,RDSQIYAVDFE [MRPS34_Y34_L33I_YF],7.72
9,EREFKYGAHNF [OAT_Y50_YF],0.388
10,QRKPSYNQLPS [BRCA2_Y71_A75P],0.682
11,RNVLVYDKLNV [ROR2_Y624],3.99
12,SAVVPYEPPEV [TP53_Y220_V216A],0.484
13,LITTLYIGFLD [KCNQ1_Y267_G272D],4.15
14,NGSFRYVIISQ [LRP1B_Y1988],0.422
15,IPGRYYETGSI [PAX2_Y73_L69P],0.437
16,GRERPYGGGGG [FUS_Y526_R521G],0.854

# Target: Grb2 SH2 (UniProt P62993)
# Test: SH2 binding enrichment of the phosphorylated peptide, bacterial display (enrichment ratio); higher = better substrate or ligand; peptides without Tyr show the background
row,Sequence,SH2 binding enrichment
1,RIPFRYPKEFQ [IDS_Y234_H229R],0.447
2,LEIETDRRLLD [KRT12_Y429_Y429D],1
3,MLEVSYVDRNS [F10_Y384_P383S],0.67
4,GTHCHYKAPTV [FZD9_Y569],1.25
5,SSFPDYLAAVD [GLB1_Y154_D151Y_YF],0.816
6,IRTIDYRYTVS [IDS_Y497_W502S],0.73
7,GGFNNYGFGSD [HNRNPH3_Y159_N163S_YF],0.753
8,MEIHAYLKLLE [LMNA_Y376_R377L],0.842
9,FADIAYNFRQG [PAH_Y166_H170Q_YF],0.77
10,RDSQIYAVDFE [MRPS34_Y34_L33I_YF],0.88
11,EREFKYGAHNF [OAT_Y50_YF],0.893
12,QRKPSYNQLPS [BRCA2_Y71_A75P],0.858
13,LITTLYIGFLD [KCNQ1_Y267_G272D],1.09
14,GRERPYGGGGG [FUS_Y526_R521G],0.722

# Second part, the sequence after the results:
row,SH2 binding enrichment,Sequence
1,0.781,LITTPYIGFLG [KCNQ1_Y267_L266P]
2,0.807,PEVRRYVLPLN [RPE65_Y368]
3,1.2,YCRHNYGVVES [HLA-DRB1_Y112]
4,0.904,LGKLTYPVGFW [NTHL1_Y177_I176T]
5,0.844,LIDSSYLTRTA [GREB1L_Y1063]
6,0.958,QQLDKYQELLD [LMNA_Y359_E358K]
7,1.02,QMWLKYSQSDL [SMC1A_Y714_R711W]
8,0.936,SNNFIYTTLGV [FAM83B_Y639_K640T_YF]
9,0.668,FDDIACIRKTL [PIK3CA_Y1021_Y1021C]
10,0.781,CQASLYPSNHD [LRIG1_Y996_G993A]
11,0.66,SVVVPYEPTEV [TP53_Y220_P223T]
12,0.841,HNLDFYKETTN [FGFR3_Y648_K650E_YF]
13,0.788,NRLTDYYEPLL [BBS10_Y536]
14,0.79,AGVDRYSLGTS [C5orf42_Y1451_P1446A]
15,0.821,TRDTDYQMTKR [ADA_Y308_L304R]
16,1.06,RNVLVYDKLNV [ROR2_Y624]
17,0.806,SAVVPYEPPEV [TP53_Y220_V216A]
18,1.17,NGSFRYVIISQ [LRP1B_Y1988]
19,0.777,IPGRYYETGSI [PAX2_Y73_L69P]

# Target: SHP2-C SH2
# Test: as above
row,Sequence,SH2 binding enrichment
1,RIPFRYPKEFQ [IDS_Y234_H229R],0.531
2,LEIETDRRLLD [KRT12_Y429_Y429D],1.11
3,MLEVSYVDRNS [F10_Y384_P383S],0.609
4,GTHCHYKAPTV [FZD9_Y569],0.913
5,SSFPDYLAAVD [GLB1_Y154_D151Y_YF],2.81
6,IRTIDYRYTVS [IDS_Y497_W502S],0.823
7,GGFNNYGFGSD [HNRNPH3_Y159_N163S_YF],0.744
8,MEIHAYLKLLE [LMNA_Y376_R377L],0.714
9,FADIAYNFRQG [PAH_Y166_H170Q_YF],0.694
10,RDSQIYAVDFE [MRPS34_Y34_L33I_YF],0.806
11,EREFKYGAHNF [OAT_Y50_YF],0.785
12,QRKPSYNQLPS [BRCA2_Y71_A75P],0.648
13,LITTLYIGFLD [KCNQ1_Y267_G272D],0.906
14,GRERPYGGGGG [FUS_Y526_R521G],0.824

# Other lines, results leading:
row,SH2 binding enrichment,Sequence
1,2.18,LITTPYIGFLG [KCNQ1_Y267_L266P]
2,0.64,PEVRRYVLPLN [RPE65_Y368]
3,0.927,YCRHNYGVVES [HLA-DRB1_Y112]
4,1.02,LGKLTYPVGFW [NTHL1_Y177_I176T]
5,0.714,LIDSSYLTRTA [GREB1L_Y1063]
6,0.59,QQLDKYQELLD [LMNA_Y359_E358K]
7,0.878,QMWLKYSQSDL [SMC1A_Y714_R711W]
8,0.927,SNNFIYTTLGV [FAM83B_Y639_K640T_YF]
9,0.471,FDDIACIRKTL [PIK3CA_Y1021_Y1021C]
10,0.694,CQASLYPSNHD [LRIG1_Y996_G993A]
11,0.619,SVVVPYEPTEV [TP53_Y220_P223T]
12,1.39,HNLDFYKETTN [FGFR3_Y648_K650E_YF]
13,0.755,NRLTDYYEPLL [BBS10_Y536]
14,0.615,AGVDRYSLGTS [C5orf42_Y1451_P1446A]
15,0.447,TRDTDYQMTKR [ADA_Y308_L304R]
16,0.535,RNVLVYDKLNV [ROR2_Y624]
17,0.502,SAVVPYEPPEV [TP53_Y220_V216A]
18,5.12,NGSFRYVIISQ [LRP1B_Y1988]
19,0.743,IPGRYYETGSI [PAX2_Y73_L69P]

# Target: c-Src SH2
# Test: as above
row,Sequence,SH2 binding enrichment
1,RIPFRYPKEFQ [IDS_Y234_H229R],0.414
2,LEIETDRRLLD [KRT12_Y429_Y429D],0.538
3,MLEVSYVDRNS [F10_Y384_P383S],0.355
4,GTHCHYKAPTV [FZD9_Y569],1.3
5,SSFPDYLAAVD [GLB1_Y154_D151Y_YF],0.509
6,IRTIDYRYTVS [IDS_Y497_W502S],0.69
7,GGFNNYGFGSD [HNRNPH3_Y159_N163S_YF],0.47
8,MEIHAYLKLLE [LMNA_Y376_R377L],0.732
9,FADIAYNFRQG [PAH_Y166_H170Q_YF],0.443
10,RDSQIYAVDFE [MRPS34_Y34_L33I_YF],0.688
11,EREFKYGAHNF [OAT_Y50_YF],0.399
12,QRKPSYNQLPS [BRCA2_Y71_A75P],0.423
13,LITTLYIGFLD [KCNQ1_Y267_G272D],0.744
14,GRERPYGGGGG [FUS_Y526_R521G],0.485

# More lines, now with the values ahead:
row,SH2 binding enrichment,Sequence
1,0.492,LITTPYIGFLG [KCNQ1_Y267_L266P]
2,0.878,PEVRRYVLPLN [RPE65_Y368]
3,1.64,YCRHNYGVVES [HLA-DRB1_Y112]
4,0.478,LGKLTYPVGFW [NTHL1_Y177_I176T]
5,0.426,LIDSSYLTRTA [GREB1L_Y1063]
6,1.31,QQLDKYQELLD [LMNA_Y359_E358K]
7,0.455,QMWLKYSQSDL [SMC1A_Y714_R711W]
8,0.72,SNNFIYTTLGV [FAM83B_Y639_K640T_YF]
9,0.51,FDDIACIRKTL [PIK3CA_Y1021_Y1021C]
10,0.475,CQASLYPSNHD [LRIG1_Y996_G993A]
11,0.864,SVVVPYEPTEV [TP53_Y220_P223T]
12,0.995,HNLDFYKETTN [FGFR3_Y648_K650E_YF]
13,1.93,NRLTDYYEPLL [BBS10_Y536]
14,0.45,AGVDRYSLGTS [C5orf42_Y1451_P1446A]
15,0.544,TRDTDYQMTKR [ADA_Y308_L304R]
16,0.908,RNVLVYDKLNV [ROR2_Y624]
17,0.643,SAVVPYEPPEV [TP53_Y220_V216A]
18,2.17,NGSFRYVIISQ [LRP1B_Y1988]
19,1.67,IPGRYYETGSI [PAX2_Y73_L69P]
